Results from patent publication US10758526B2, “Combination therapies using agents that target tumor-associated stroma or tumor cells and other pathways” (BIOMED VALLEY DISCOVERIES, INC., priority 2014, dated 2020).
Positions count from the first letter of the chain named.

Experiments:
[1] = target: T1, mTEM8-Fc (Mus musculus, UniProt Q9CZ52); assay: Biocore affinity measurement of anti-TEM8 Fabs, mTEM8-Fc; type: binding
T1 construct: Fc
T1 sequence (Q9CZ52 31-319 limits assumed): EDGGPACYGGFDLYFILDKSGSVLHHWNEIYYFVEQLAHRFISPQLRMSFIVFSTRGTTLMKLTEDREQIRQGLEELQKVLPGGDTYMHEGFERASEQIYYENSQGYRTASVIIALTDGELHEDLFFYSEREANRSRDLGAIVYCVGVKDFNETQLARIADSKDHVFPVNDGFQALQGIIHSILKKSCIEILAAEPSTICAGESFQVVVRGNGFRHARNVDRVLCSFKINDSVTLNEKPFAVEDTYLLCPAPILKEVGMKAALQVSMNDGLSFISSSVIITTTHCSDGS

[2] = target: T2, hTEM8-AP (Homo sapiens, UniProt Q9H6X2); assay: Biocore affinity measurement of anti-TEM8 Fabs, hTEM8-AP; type: binding
T2 sequence (Q9H6X2 33-321 limits assumed): T1 sequence (Q9CZ52 31-319 limits assumed) with R40K, S104R, A241S

[3] = Pharmacokinetics of TEM8 antibodies in mouse, single dose; type: in vivo
Excerpt: (§1) Tables 8 and 9 show pharmacokinetic properties of TEM8 antibodies according to the present invention in mouse for single dose (Table 8) and multiple dose (Table 9) treatments.

[4] = Pharmacokinetics of TEM8 antibodies in mouse, multiple dose; type: in vivo
Excerpt: as §1

[5] = test system: 3T3 fibroblasts; assay: Contractility of 3T3 fibroblasts in the presence of TGFb-1; type: cell-based; settings: in vitro
Experimental: 3T3 cells were cultured and contractility in the presence of TGFb-1 was measured in control or M825 exposed cells. […] Contractile forces are thought to contribute to increased cancer cell invasion.

Substance: M825: TEM8 monoclonal antibody (hIgG1), VH SEQ ID NO:1 and VL SEQ ID NO:2
- ka [1]: 1.7e+06 M⁻¹ s⁻¹
- kd [1]: 8.942e-05 s⁻¹
- ka [2]: 3.05e+06 M⁻¹ s⁻¹
- kd [2]: 0.0001802 s⁻¹
- AUCI ([3]; 5 mg/kg): 1310.519 µg·h/mL
- AUCT ([3]; 5 mg/kg): 1310.222 µg·h/mL
- CLF ([3]; 5 mg/kg): 3.82 mL/h/kg
- CMAX ([3]; 5 mg/kg): 46800 ng/mL
- HALF ([3]; 5 mg/kg): 6.03 h
- KEL ([3]; 5 mg/kg): 0.1149 h⁻¹
- TMAX ([3]; 5 mg/kg): 3 h
- VZF ([3]; 5 mg/kg): 0.03319 L/kg
- AUCI ([3]; 15 mg/kg): 9239.202 µg·h/mL
- AUCT ([3]; 15 mg/kg): 8991.767 µg·h/mL
- CLF ([3]; 15 mg/kg): 1.62 mL/h/kg
- CMAX ([3]; 15 mg/kg): 144000 ng/mL
- HALF ([3]; 15 mg/kg): 23.77 h
- KEL ([3]; 15 mg/kg): 0.0292 h⁻¹
- TMAX ([3]; 15 mg/kg): 3 h
- VZF ([3]; 15 mg/kg): 0.05566 L/kg
- AUCI ([4]; 5 mg/kg): 1408.345 µg·h/mL
- AUCT ([4]; 5 mg/kg): 1408.201 µg·h/mL
- CLF ([4]; 5 mg/kg): 3.55 mL/h/kg
- CMAX ([4]; 5 mg/kg): 54300 ng/mL
- HALF ([4]; 5 mg/kg): 9.10 h
- KEL ([4]; 5 mg/kg): 0.0762 h⁻¹
- TMAX ([4]; 5 mg/kg): 3 h
- VZF ([4]; 5 mg/kg): 0.04661 L/kg
- AUCI ([4]; 15 mg/kg): 21649.446 µg·h/mL
- AUCT ([4]; 15 mg/kg): 21648.879 µg·h/mL
- CLF ([4]; 15 mg/kg): 0.69 mL/h/kg
- CMAX ([4]; 15 mg/kg): 314000 ng/mL
- HALF ([4]; 15 mg/kg): 17.05 h
- KEL ([4]; 15 mg/kg): 0.0406 h⁻¹
- TMAX ([4]; 15 mg/kg): 3 h
- VZF ([4]; 15 mg/kg): 0.01705 L/kg
- contractility of activated 3T3 fibroblasts [5]: block the contractility
